Results on 31 molecules are retold here after patent publication US20210388087A1.

In this assay the target is Human CD3eg linker (human). Kind of assay: SPR; fold vs parent H183/L072. For orientation: Surface plasmon resonance follows binding to a sensor surface in real time, without labels.

Positions count from the first letter of the chain named. Names may count otherwise.

Sequence of Human CD3eg linker (human) (chain, as listed by the source limits assumed): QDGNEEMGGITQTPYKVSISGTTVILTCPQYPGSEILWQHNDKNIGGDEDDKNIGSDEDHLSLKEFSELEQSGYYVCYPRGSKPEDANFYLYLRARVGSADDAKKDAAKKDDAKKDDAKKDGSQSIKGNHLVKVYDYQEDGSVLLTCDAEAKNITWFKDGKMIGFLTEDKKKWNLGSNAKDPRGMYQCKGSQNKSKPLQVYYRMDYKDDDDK

B1: H183/L072 VL K50A (antibody, name in Kabat numbering, V domains shown)
VH: QVQLVESGGGLVQPGRSLRLSCAASGFTFSNAWMHWVRQAPGKGLEWVAQIKDKGNAYAAYYAPSVKGRFTISRDDSKNSIYLQMNSLKTEDTAVYYCHYVHYASASTVLPAFGVDAWGQGTTVTVSS
VL: DIVMTQSPLSLPVTPGEPASISCQASQELVHMNRNTYLHWYQQKPGQAPRLLIYAVSNRFPGVPDRFSGSGSGTDFTLKISRVEAEDVGVYYCAQGTSVPFTFGQGTKLEIK
On to B1, for which the fold change of affinity stood at 0 fold.

B2: H183/L072 VL G91P (antibody, name in Kabat numbering, V domains shown)
VH: B1 VH
VL: B1 VL with A55K, G96P
As for B2, the fold change of affinity turned out to be 0 fold.

B3: H183/L072 VL A89L (antibody, name in Kabat numbering, V domains shown)
VH: B1 VH
VL: B1 VL with A55K, A94L
For the molecule B3, the fold change of affinity worked out at 0 fold.

B4: H183/L072 VL Q90P (antibody, name in Kabat numbering, V domains shown)
VH: B1 VH
VL: B1 VL with A55K, Q95P
On to B4, for which the fold change of affinity was determined as 0 fold.

B5: H183/L072 VL K50I (antibody, name in Kabat numbering, V domains shown)
VH: B1 VH
VL: B1 VL with A55I
For the molecule B5, the fold change of affinity came to 0 fold.

B6: H183/L072 VL G91I (antibody, name in Kabat numbering, V domains shown)
VH: B1 VH
VL: B1 VL with A55K, G96I
For B6, the fold change of affinity is 0 fold.

B7: H183/L072 VL K50P (antibody, name in Kabat numbering, V domains shown)
VH: B1 VH
VL: B1 VL with A55P
Take B7: the fold change of affinity stood at 0 fold.

B8: H183/L072 VL F96I (antibody, name in Kabat numbering, V domains shown)
VH: B1 VH
VL: B1 VL with A55K, F101I
For the molecule B8, the fold change of affinity was 0 fold.

B9: H183/L072 VL G91A (antibody, name in Kabat numbering, V domains shown)
VH: B1 VH
VL: B1 VL with A55K, G96A
With B9, the fold change of affinity was determined as 0 fold.

B10: H183/L072 VL V51P (antibody, name in Kabat numbering, V domains shown)
VH: B1 VH
VL: B1 VL with A55K, V56P
Consider B10, for which the fold change of affinity is 0 fold.

B11: H183/L072 VL K50L (antibody, name in Kabat numbering, V domains shown)
VH: B1 VH
VL: B1 VL with A55L
For the molecule B11, the fold change of affinity is 0 fold.

B12: H183/L072 VL A89I (antibody, name in Kabat numbering, V domains shown)
VH: B1 VH
VL: B1 VL with A55K, A94I
As for B12, the fold change of affinity turned out to be 0 fold.

B13: H183/L072 VL Q90M (antibody, name in Kabat numbering, V domains shown)
VH: B1 VH
VL: B1 VL with A55K, Q95M
For B13, the fold change of affinity turned out to be 0 fold.

B14: H183/L072 VL N53I (antibody, name in Kabat numbering, V domains shown)
VH: B1 VH
VL: B1 VL with A55K, N58I
Turning to B14, the fold change of affinity was found to be 0 fold.

B15: H183/L072 VL S52P (antibody, name in Kabat numbering, V domains shown)
VH: B1 VH
VL: B1 VL with A55K, S57P
Take B15: the fold change of affinity came out at 0 fold.

B16: H183/L072 VL P95M (antibody, name in Kabat numbering, V domains shown)
VH: B1 VH
VL: B1 VL with A55K, P100M
Consider B16, for which the fold change of affinity was found to be 0 fold.

B17: H183/L072 VL T92P (antibody, name in Kabat numbering, V domains shown)
VH: B1 VH
VL: B1 VL with A55K, T97P
For the molecule B17, the fold change of affinity worked out at 0 fold.

B18: H183/L072 VL G91L (antibody, name in Kabat numbering, V domains shown)
VH: B1 VH
VL: B1 VL with A55K, G96L
In the case of B18, the fold change of affinity turned out to be 0 fold.

B19: H183/L072 VL F96M (antibody, name in Kabat numbering, V domains shown)
VH: B1 VH
VL: B1 VL with A55K, F101M
In the case of B19, the fold change of affinity amounted to 0 fold.

B20: H183/L072 VL K50M (antibody, name in Kabat numbering, V domains shown)
VH: B1 VH
VL: B1 VL with A55M
In the case of B20, the fold change of affinity amounted to 0 fold.

B21: H183/L072 VL P95L (antibody, name in Kabat numbering, V domains shown)
VH: B1 VH
VL: B1 VL with A55K, P100L
Consider B21, for which the fold change of affinity is 0 fold.

B22: H183/L072 VL P95I (antibody, name in Kabat numbering, V domains shown)
VH: B1 VH
VL: B1 VL with A55K, P100I
For B22, the fold change of affinity is 0 fold.

B23: H183/L072 VL A89P (antibody, name in Kabat numbering, V domains shown)
VH: B1 VH
VL: B1 VL with A55K, A94P
As for B23, the fold change of affinity amounted to 0 fold.

B24: H183/L072 VL F96L (antibody, name in Kabat numbering, V domains shown)
VH: B1 VH
VL: B1 VL with A55K, F101L
In the case of B24, the fold change of affinity was 0 fold.

B25: H183/L072 VL T92I (antibody, name in Kabat numbering, V domains shown)
VH: B1 VH
VL: B1 VL with A55K, T97I
As to B25, the fold change of affinity was found to be 0 fold.

B26: H183/L072 VL G91M (antibody, name in Kabat numbering, V domains shown)
VH: B1 VH
VL: B1 VL with A55K, G96M
With B26, the fold change of affinity was 0 fold.

B27: H183/L072 VL Q90I (antibody, name in Kabat numbering, V domains shown)
VH: B1 VH
VL: B1 VL with A55K, Q95I
In the case of B27, the fold change of affinity was 0 fold.

B28: H183/L072 VL F96A (antibody, name in Kabat numbering, V domains shown)
VH: B1 VH
VL: B1 VL with A55K, F101A
Take B28: the fold change of affinity is 0 fold.

B29: H183/L072 VL Q90L (antibody, name in Kabat numbering, V domains shown)
VH: B1 VH
VL: B1 VL with A55K, Q95L
For the molecule B29, the fold change of affinity was found to be 0 fold.

B30: H183/L072 VL P95A (antibody, name in Kabat numbering, V domains shown)
VH: B1 VH
VL: B1 VL with A55K, P100A
Consider B30, for which the fold change of affinity came out at 0 fold.

B31: H183/L072 VL Q90A (antibody, name in Kabat numbering, V domains shown)
VH: B1 VH
VL: B1 VL with A55K, Q95A
With B31, the fold change of affinity was found to be 0 fold.
